Broadly, the IC50 is the midpoint of a concentration-inhibition curve.

Drawing on the Immune Epitope Database (IEDB), this text covers IC50 for 24 sequences.

The target in assay [1] is HLA-A*68:02. As to the kind of experiment: IEDB peptide-MHC binding, cellular MHC/competitive/fluorescence; ≥ and ≤ were set here for values at or beyond the usual limits of such assays.
Assay [2] addresses HLA-A*68:01. The description is as above. The note with it: source organism: Hepatitis B virus.
Assay [3] concerns the target HLA-A*11:01. Described as above. The conditions noted are these: source organism: Hepatitis B virus.
Assay [4] addresses HLA-A*02:06. Nature of the assay: IEDB peptide-MHC binding, purified MHC/competitive/radioactivity; ≥ and ≤ were set here for values at or beyond the usual limits of such assays.
The target in assay [5] is HLA-A*02:03. The assay is described as above.
The target of assay [6] is HLA-A*31:01. The assay is described as above.
Assay [7] concerns the target HLA-A*02:02. Described as above.
In assay [8] the target is HLA-A*02:01. The assay is described as above.
Assay [9] addresses HLA-A*03:01. The assay is described as above. The conditions noted are these: source organism: Hepatitis B virus.
The target of assay [10] is HLA-A*02:06. As to the kind of experiment: IEDB peptide-MHC binding, cellular MHC/competitive/fluorescence; ≥ and ≤ were set here for values at or beyond the usual limits of such assays. The conditions noted are these: source organism: Hepatitis B virus.
Assay [11] has as its target HLA-A*02:03. The assay is described as above. The conditions noted are these: source organism: Hepatitis B virus.
For assay [12], the target named is HLA-A*31:01. Described as above. The conditions noted are these: source organism: Hepatitis B virus.
The target of assay [13] is HLA-A*02:02. Described as above. The note with it: source organism: Hepatitis B virus.
Assay [14] deals with HLA-A*30:02. The assay is described as above. The note with it: source organism: Vaccinia virus WR.
The target in assay [15] is HLA-A*23:01. The description is as above. The note with it: source organism: Vaccinia virus WR.
In assay [16] the target is HLA-A*29:02. The assay is described as above. The note with it: source organism: Vaccinia virus WR.
For assay [17], the target named is HLA-A*01:01. The description is as above. The note with it: source organism: Vaccinia virus WR.
For assay [18], the target named is HLA-A*26:01. The description is as above. The note with it: source organism: Vaccinia virus WR.
The target in assay [19] is HLA-A*24:02. The description is as above. The conditions noted are these: source organism: Vaccinia virus WR.
Assay [20] addresses HLA-A*68:02. As to the kind of experiment: IEDB peptide-MHC binding, purified MHC/competitive/radioactivity; ≥ and ≤ were set here for values at or beyond the usual limits of such assays.
Assay [21] addresses HLA-A*03:01. Nature of the assay: IEDB peptide-MHC binding, cellular MHC/competitive/fluorescence; ≥ and ≤ were set here for values at or beyond the usual limits of such assays. The conditions noted are these: source organism: Hepatitis B virus.
Assay [22] concerns the target HLA-A*02:01. Described as above.
The mark [23] stands for this setting: source organism: Hepatitis B virus.
Setting [24] is: source organism: Vaccinia virus WR.

As to CLIFLLVLL, the IC50 came out at 7100 nM in assay [1] (setting [23]); 34900 nM in assay [2]; 35700 nM in assay [3]; 1040 nM in assay [4] (setting [23]); 659 nM in [5] (setting [23]); 998 nM in assay [6] (setting [23]). The IC50 in [7] (setting [23]) was 1520 nM; in assay [8] (setting [23]), 101 nM; in assay [9], 682 nM.
As for CLRRFIIFL, the IC50 is 10100 nM in [10]; 48800 nM in assay [1] (setting [23]); 14600 nM in [11]; at least 70000 nM in assay [2]; 6640 nM in assay [12]; 7110 nM in assay [13]. Moreover, the IC50 in assay [3] was at least 70000 nM; in assay [8] (setting [23]), 1390 nM; in [9], 2630 nM.
For CQCTVQEFI, the IC50 in assay [14] is at least 70000 nM; in assay [15] it was 44500 nM; in assay [16] it was 20500 nM; in [17], 28500 nM; in assay [18], 24800 nM; in assay [19] it was 29000 nM. The IC50 in assay [4] (setting [24]) is 1130 nM; in assay [20] (setting [24]), 1730 nM; in [5] (setting [24]), 4790 nM; in [7] (setting [24]), 2050 nM; in assay [8] (setting [24]), 2200 nM.
With FLAPLPIHTA, the half-maximal inhibitory concentration (IC50) in [2] was 35500 nM; in [12], at least 70000 nM; in [3], 43200 nM; in [4] (setting [23]) it was 13 nM; in assay [20] (setting [23]) it was 971 nM; in assay [5] (setting [23]), 0.28 nM. Moreover, the IC50 in [7] (setting [23]) was 0.049 nM; in assay [8] (setting [23]), 1.3 nM; in assay [9], 4090 nM.
Regarding FLFILLLCL, the IC50 came out at 26900 nM in [2]; 7020 nM in assay [13]; 19000 nM in assay [3]; 1780 nM in assay [4] (setting [23]); 1200 nM in [20] (setting [23]); 1570 nM in [5] (setting [23]). Besides, the IC50 in assay [6] (setting [23]) was 1470 nM; in assay [8] (setting [23]), 213 nM; in assay [9], 664 nM.
In the case of FLLSLGIHL, the IC50 was determined as 10500 nM in assay [1] (setting [23]), 15700 nM in assay [2], 6790 nM in assay [12] and 2530 nM in assay [9].
With HLYSHPIIL, the IC50 in assay [10] is 9450 nM; in assay [1] (setting [23]), 22700 nM; in [2], at least 70000 nM; in [12], 46000 nM; in [3], at least 70000 nM; in [5] (setting [23]) it was 18 nM. Besides, the concentration for half-maximal inhibition (IC50) in [7] (setting [23]) was determined as 81 nM; in assay [9], 171 nM.
Consider ILCWGELMTL, for which the IC50 is 7820 nM in assay [1] (setting [23]); 43900 nM in assay [2]; at least 70000 nM in [3]; 9080 nM in assay [21]; 7 nM in assay [4] (setting [23]); 5.3 nM in [5] (setting [23]). Besides, the IC50 came to 1860 nM in assay [6] (setting [23]) and 6.7 nM in assay [7] (setting [23]).
Turning to ILLLCLIFL, the IC50 in [1] (setting [23]) turned out to be 12100 nM; in assay [2] it was 30300 nM; in assay [3], 13800 nM; in assay [4] (setting [23]) it was 145 nM; in assay [5] (setting [23]), 1530 nM; in [6] (setting [23]), 1480 nM. Further, the results for the IC50 in [7] (setting [23]) and in assay [9] were 1120 nM and 624 nM, respectively.
For the sequence ILRGTSFVYV, the IC50 in assay [1] (setting [23]) is 37200 nM; in [2], at least 70000 nM; in assay [3] it was at least 70000 nM; in [4] (setting [23]), 83 nM; in assay [5] (setting [23]), 2.2 nM; in assay [6] (setting [23]) it was 1360 nM. Also, the IC50 in assay [7] (setting [23]) is 3.9 nM; in assay [9], 4770 nM.
For the sequence KLYIALCKV, the IC50 in assay [1] (setting [24]) came out at 16600 nM; in assay [4] (setting [24]), 97 nM; in assay [5] (setting [24]), 1.4 nM; in assay [6] (setting [24]), 739 nM; in assay [7] (setting [24]), 16 nM; in [8] (setting [24]) it was 6.7 nM.
On to KQYLNLYPV, for which the IC50 was 36800 nM in assay [1] (setting [23]); at least 70000 nM in assay [2]; 30400 nM in assay [3]; at least 70000 nM in [21]; 11 nM in assay [4] (setting [23]); 4.5 nM in assay [5] (setting [23]). Further, the IC50 came out at 189 nM in [6] (setting [23]), 224 nM in assay [7] (setting [23]) and 138 nM in assay [8] (setting [23]).
For the sequence LLDYQGMLPV, the IC50 in assay [2] was at least 70000 nM; in assay [3], 28500 nM; in [4] (setting [23]), 2.6 nM; in assay [20] (setting [23]), 626 nM; in assay [6] (setting [23]) it was 4010 nM; in [9], 63 nM.
With LLPIFFCLWV, the concentration for half-maximal inhibition (IC50) in [1] (setting [23]) is at least 70000 nM; in [2] it was 51000 nM; in [12], 6230 nM; in assay [3], at least 70000 nM; in assay [4] (setting [23]), 2.3 nM; in assay [5] (setting [23]) it was 15 nM. Also, in assay [9], the IC50 came to 1330 nM.
Take LLVPFVQWFV: the IC50 in assay [11] turned out to be 10500 nM; in assay [2], 45200 nM; in assay [3] it was 8080 nM; in [20] (setting [23]), 68 nM; in assay [6] (setting [23]) it was 161 nM; in assay [7] (setting [23]) it was 0.17 nM. For the same sequence, the IC50 in [9] was 476 nM.
Consider LLWFHISCL, for which the IC50 is at least 70000 nM in [1] (setting [23]); at least 70000 nM in [2]; 8840 nM in [12]; 32400 nM in [3]; 382 nM in [4] (setting [23]); 307 nM in assay [7] (setting [23]). In assay [9], the IC50 was found to be 3260 nM.
As to LVPFVQWFV, the IC50 in assay [2] is at least 70000 nM; in assay [3], 69800 nM; in assay [21], at least 70000 nM; in [4] (setting [23]), 55 nM; in [20] (setting [23]) it was 19 nM; in assay [5] (setting [23]) it was 71 nM. The IC50 amounted to 1820 nM in assay [6] (setting [23]) and 168 nM in assay [8] (setting [23]).
In the case of MMWYWGPSL, the IC50 in assay [2] was at least 70000 nM; in assay [5] (setting [23]) it was 54 nM; in [6] (setting [23]), 131 nM; in assay [7] (setting [23]), 137 nM.
For the sequence QQFANVISKI, the IC50 was 9290 nM in assay [14]; 12200 nM in assay [15]; at least 70000 nM in assay [16]; at least 70000 nM in assay [17]; 7320 nM in [22] (setting [24]); at least 70000 nM in [18]. Also, the IC50 was at least 70000 nM in assay [19]; 863 nM in assay [4] (setting [24]); 1050 nM in assay [20] (setting [24]); 1.7 nM in assay [5] (setting [24]); 51 nM in assay [7] (setting [24]).
As for RVRGLYFPA, the IC50 in assay [10] was 8240 nM; in assay [1] (setting [23]), 17200 nM; in [2] it was at least 70000 nM; in [22] (setting [23]) it was 18000 nM; in assay [3] it was at least 70000 nM; in [21], at least 70000 nM. In addition, the IC50 in [5] (setting [23]) came out at 3960 nM; in assay [6] (setting [23]), 24 nM; in [7] (setting [23]) it was 3120 nM.
Turning to SLYADSPSV, the IC50 in assay [1] (setting [23]) was 13700 nM; in assay [2] it was at least 70000 nM; in assay [12], 14600 nM; in assay [3], at least 70000 nM; in assay [4] (setting [23]) it was 883 nM; in [5] (setting [23]), 3.4 nM. Besides, the figures for the IC50 in [7] (setting [23]) and in [9] were 12 nM and 2020 nM, respectively.
Regarding TQVKELGIAI, the IC50 is at least 70000 nM in assay [14]; 38600 nM in [15]; at least 70000 nM in [16]; at least 70000 nM in assay [17]; 49600 nM in assay [18]; at least 70000 nM in assay [19]. In addition, the IC50 in [4] (setting [24]) amounted to 3.9 nM; in [20] (setting [24]) it was 1180 nM; in [5] (setting [24]) it was 704 nM; in assay [7] (setting [24]) it was 2170 nM; in assay [8] (setting [24]), 1760 nM.
Regarding VQTIVFIWFI, the IC50 in assay [14] was 13300 nM; in assay [15], 32800 nM; in assay [16], 20300 nM; in assay [17], 5130 nM; in [18], 16000 nM; in assay [19], at least 70000 nM. Also, the IC50 in assay [8] (setting [24]) stood at 952 nM.
Consider WMMWYWGPSL, for which the IC50 was at least 70000 nM in assay [2]; at least 70000 nM in [3]; 15400 nM in assay [21]; 305 nM in assay [4] (setting [23]); 3590 nM in assay [20] (setting [23]); 68 nM in assay [5] (setting [23]). For the same sequence, the IC50 in assay [6] (setting [23]) worked out at 784 nM; in assay [7] (setting [23]), 354 nM.
